Measurements taken from the supplement of paper PMC9233669.
This sample holds only a part of the variants without activity.

Key:
[1] = tested on: biotinyl-Ile-oxazolone; assay: self-aminoacylation, catalytic enhancement (BIO) (fold over background); higher = more active; k-Seq, kA / k0A0; sequences stand for … in GGGAAUGGAUCCACAUCUACGAAUUC…UUCACUGCAGACUUGACGAAGCUG
How it was run: (§1)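 Working in 50 μL HEPES/NaCl/KCl/MgCl2/CaCl2 buffer with 5% acetonitrile at pH 6.9–7.0, mutagenized RNA pools (0.43 μM; 21-nt variable region) were reacted with 2–1250 μM of each biotinyl-aminoacyl-oxazolone for 90 minutes at room temperature. Streptavidin capture followed, with quantification by triplicate qPCR and Illumina sequencing. Catalytic enhancement is reported as median kA over the uncatalyzed rate, the low-activity peak of a bimodal Gaussian fit to the data.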

[2] = tested on: biotinyl-Trp-oxazolone; assay: self-aminoacylation, catalytic enhancement (BWO) (fold over background); higher = more active; k-Seq, kA / k0A0; sequences stand for … in GGGAAUGGAUCCACAUCUACGAAUUC…UUCACUGCAGACUUGACGAAGCUG
How it was run: as §1

[3] = tested on: biotinyl-Val-oxazolone; assay: self-aminoacylation, catalytic enhancement (BVO) (fold over background); higher = more active; k-Seq, kA / k0A0; sequences stand for … in GGGAAUGGAUCCACAUCUACGAAUUC…UUCACUGCAGACUUGACGAAGCUG
How it was run: as §1

[4] = tested on: biotinyl-Phe-oxazolone; assay: self-aminoacylation, catalytic enhancement (BFO) (fold over background); higher = more active; k-Seq, kA / k0A0; sequences stand for … in GGGAAUGGAUCCACAUCUACGAAUUC…UUCACUGCAGACUUGACGAAGCUG
How it was run: as §1

[5] = tested on: biotinyl-Met-oxazolone; assay: self-aminoacylation, catalytic enhancement (BMO) (fold over background); higher = more active; k-Seq, kA / k0A0; sequences stand for … in GGGAAUGGAUCCACAUCUACGAAUUC…UUCACUGCAGACUUGACGAAGCUG
How it was run: as §1

[6] = tested on: biotinyl-Leu-oxazolone; assay: self-aminoacylation, catalytic enhancement (BLO) (fold over background); higher = more active; k-Seq, kA / k0A0; sequences stand for … in GGGAAUGGAUCCACAUCUACGAAUUC…UUCACUGCAGACUUGACGAAGCUG
How it was run: as §1

Sequence	self-aminoacylation [1]	self-aminoacylation [2]	self-aminoacylation [3]	self-aminoacylation [4]	self-aminoacylation [5]	self-aminoacylation [6]
CCACACUUAAAGCAACCGGUC [Fam1B.1 aminoacylation ribozyme variant]	1.08	0.943	1.16	0.756	1.2	0.876
CCACACUUAAAGCAAUCGGUG [Fam1B.1 aminoacylation ribozyme variant]	2.75	4.42	2.42	26	3.87	4.31
CCACACUUAAAGCACUCGGUC [Fam1B.1 aminoacylation ribozyme variant]	1.16	0.732	1.11	0.788	0.856	0.924
CCACACUUAAAGGAAUCGGUC [Fam1B.1 aminoacylation ribozyme variant]	1.12	0.763	1.01	0.88	0.953	0.906
CCACACUUCAAACAAUCAGUC [Fam1B.1 aminoacylation ribozyme variant]	0.947	12.4	1.06	42.2	0.771	1.16
CCACACUUCAAACAAUCCGUC [Fam1B.1 aminoacylation ribozyme variant]	0.83	1.2	0.993	1.35	0.559	0.682
CCACACUUCAAACAAUCGUUC [Fam1B.1 aminoacylation ribozyme variant]	0.759	0.778	0.822	1.55	0.697	0.623
CCACACUUCAAAGAAUCGGUC [Fam1B.1 aminoacylation ribozyme variant]	0.988	9.57	0.955	12.1	0.888	1.17
CCACACUUCAACCAAGCGGUC [Fam1B.1 aminoacylation ribozyme variant]	0.95	0.613	1.08	0.838	0.914	0.761
CCACACUUCAACCAAUCGGCC [Fam1B.1 aminoacylation ribozyme variant]	2.12	5.45	2	4.99	1.55	1.72
CCACACUUCAACCAAUCGUUC [Fam1B.1 aminoacylation ribozyme variant]	0.674	0.778	0.636	1.28	0.634	0.562
CCACACUUCAACCUAUCGGUC [Fam1B.1 aminoacylation ribozyme variant]	1.02	0.993	1.34	1.18	0.87	0.995
CCACACUUCAAGAAACCGGUC [Fam1B.1 aminoacylation ribozyme variant]	0.998	0.931	0.824	0.875	0.798	1.17
CCACACUUCAAGAAAGCGGUC [Fam1B.1 aminoacylation ribozyme variant]	0.839	0.407	0.716	0.498	0.66	0.784
CCACACUUCAAGAAAUCGGGC [Fam1B.1 aminoacylation ribozyme variant]	2.14	2.16	1.69	1.14	1.82	1.64
CCACACUUCAAGCAAACGGUC [Fam1B.1 aminoacylation ribozyme variant]	0.624	0.599	0.755	1.02	0.511	0.535
CCACACUUCAAGCAAACUGUC [Fam1B.1 aminoacylation ribozyme variant]	0.424	0.5	0.504	0.713	0.371	0.44
CCACACUUCAAGCAAGCAGUC [Fam1B.1 aminoacylation ribozyme variant]	0.721	0.475	0.857	0.916	0.645	0.861
CCACACUUCAAGCAAGCGGUA [Fam1B.1 aminoacylation ribozyme variant]	1.39	0.921	1.2	0.741	1.02	1.13
CCACACUUCAAGCAAGCGUUC [Fam1B.1 aminoacylation ribozyme variant]	0.689	0.492	0.728	0.905	0.454	0.516
CCACACUUCAAGCAAUAGGAC [Fam1B.1 aminoacylation ribozyme variant]	0.621	0.626	0.537	0.856	0.456	0.479

Sequence	self-aminoacylation [1]	self-aminoacylation [2]	self-aminoacylation [3]	self-aminoacylation [4]	self-aminoacylation [5]	self-aminoacylation [6]
CCACACUUCAAGCAAUAGGUG [Fam1B.1 aminoacylation ribozyme variant]	1.85	2.55	1.65	4.08	2.17	2.81
CCACACUUCAAGCAAUCCAUC [Fam1B.1 aminoacylation ribozyme variant]	0.553	0.529	0.774	0.752	0.433	0.446
CCACACUUCAAGCAAUCCGCC [Fam1B.1 aminoacylation ribozyme variant]	0.873	0.899	1.64	0.939	1.16	1.02
CCACACUUCAAGCAAUCGCCC [Fam1B.1 aminoacylation ribozyme variant]	0.996	1.58	2.32	0.498	1.33	2
CCACACUUCAAGCAAUCGGAA [Fam1B.1 aminoacylation ribozyme variant]	1.45	1.18	1.51	1.81	1.42	2.04
CCACACUUCAAGCAAUCGGUC [Fam1B.1 aminoacylation ribozyme variant]	1.01	23.9	1.25	59.3	0.964	1.44
CCACACUUCAAGCAAUCGGUU [Fam1B.1 aminoacylation ribozyme variant]	1.35	7.61	1.59	9.59	1.36	1.38
CCACACUUCAAGCAAUCGUCC [Fam1B.1 aminoacylation ribozyme variant]	0.54	1.06	0.652	1.57	0.412	0.518
CCACACUUCAAGCAAUCUGAC [Fam1B.1 aminoacylation ribozyme variant]	0.493	0.429	0.549	0.63	0.41	0.325
CCACACUUCAAGCAAUUGGCC [Fam1B.1 aminoacylation ribozyme variant]	2.77	3.51	4.13	2.34	2.58	3.18
CCACACUUCAAGCACUCGGCC [Fam1B.1 aminoacylation ribozyme variant]	3.06	5.51	4.04	15.9	2.89	3.19
CCACACUUCAAGCACUCGGUG [Fam1B.1 aminoacylation ribozyme variant]	2.92	3.63	3.16	22.4	3.52	4.22
CCACACUUCAAGCAGCCGGUC [Fam1B.1 aminoacylation ribozyme variant]	1.97	1.68	1.56	0.916	1.32	1.82
CCACACUUCAAGCAGGCGGUC [Fam1B.1 aminoacylation ribozyme variant]	1.86	1.77	1.54	0.771	1.24	1.07
CCACACUUCAAGCAUUCAGUC [Fam1B.1 aminoacylation ribozyme variant]	0.878	0.562	0.758	1.03	0.505	0.576
CCACACUUCAAGCCAUCGGCC [Fam1B.1 aminoacylation ribozyme variant]	2.98	4.97	5	5.27	3.33	2.85
CCACACUUCAAGCCAUCGUUC [Fam1B.1 aminoacylation ribozyme variant]	1.08	0.897	1.35	0.848	1.03	1.24
CCACACUUCAAGCGACCGGUC [Fam1B.1 aminoacylation ribozyme variant]	1.22	1.63	1.52	0.483	1.11	1.33
CCACACUUCAAGCGAGCGGUC [Fam1B.1 aminoacylation ribozyme variant]	0.983	0.744	1.11	0.929	0.603	0.93
CCACACUUCAAGCGAUCGCUC [Fam1B.1 aminoacylation ribozyme variant]	2.62	2.83	2.03	4.68	1.85	2.28
CCACACUUCAAGCGAUCGGGC [Fam1B.1 aminoacylation ribozyme variant]	2.4	3.13	2.89	1.07	2.65	1.64
